Experimental data as given in US20200024360A1 (Janssen / Centocor, published 2020).

T1: Cynomolgous monkey PSMA, full length (Macaca fascicularis, UniProt Q04609 1-750 (human entry))
T1 construct: On transfected HEK293F cells; also called cyno PSMA; EHH56646.1
T1 chain: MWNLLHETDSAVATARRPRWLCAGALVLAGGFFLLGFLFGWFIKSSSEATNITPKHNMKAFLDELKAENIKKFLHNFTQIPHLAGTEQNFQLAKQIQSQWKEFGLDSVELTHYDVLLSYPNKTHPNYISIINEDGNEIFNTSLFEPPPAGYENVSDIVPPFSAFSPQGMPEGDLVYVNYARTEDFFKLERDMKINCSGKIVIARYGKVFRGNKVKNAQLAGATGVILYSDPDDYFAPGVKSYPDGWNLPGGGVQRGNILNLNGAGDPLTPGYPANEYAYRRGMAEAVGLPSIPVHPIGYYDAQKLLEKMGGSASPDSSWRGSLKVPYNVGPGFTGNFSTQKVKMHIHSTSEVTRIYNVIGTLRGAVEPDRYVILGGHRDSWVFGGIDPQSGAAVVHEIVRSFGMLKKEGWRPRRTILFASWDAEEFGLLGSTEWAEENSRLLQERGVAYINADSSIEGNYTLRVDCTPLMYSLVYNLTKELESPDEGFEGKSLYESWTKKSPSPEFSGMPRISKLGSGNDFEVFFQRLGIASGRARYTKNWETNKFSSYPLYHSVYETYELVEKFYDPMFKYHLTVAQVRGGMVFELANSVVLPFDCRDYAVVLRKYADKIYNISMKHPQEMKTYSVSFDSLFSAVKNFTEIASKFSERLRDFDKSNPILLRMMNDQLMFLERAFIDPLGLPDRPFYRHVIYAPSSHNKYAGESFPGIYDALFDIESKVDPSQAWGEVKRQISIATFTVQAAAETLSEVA

B1: PS3B27 (bispecific antibody, human IgG4 S228P, kappa, lambda, F234A L235A)
heavy 1: not shown
light 1: not shown
heavy 2: EVQLVESGGGLVQPGGSLRLSCAASGFTFNTYAMNWVRQAPGKGLEWVARIRSKYNNYATYYAASVKGRFTISRDDSKNSLYLQMNSLKTEDTAVYYCARHGNFGNSYVSWFAYWGQGTLVTVSSASTKGPSVFPLAPCSRSTSESTAALGCLVKDYFPEPVTVSWNSGALTSGVHTFPAVLQSSGLYSLSSVVTVPSSSLGTKTYTCNVDHKPSNTKVDKRVESKYGPPCPPCPAPEAAGGPSVFLFPPKPKDTLMISRTPEVTCVVVDVSQEDPEVQFNWYVDGVEVHNAKTKPREEQFNSTYRVVSVLTVLHQDWLNGKEYKCKVSNKGLPSSIEKTISKAKGQPREPQVYTLPPSQEEMTKNQVSLTCLVKGFYPSDIAVEWESNGQPENNYKTTPPVLDSDGSFLLYSKLTVDKSRWQEGNVFSCSVMHEALHNHYTQKSLSLSLGK
light 2: QTVVTQEPSLTVSPGGTVTLTCRSSTGAVTTSNYANWVQQKPGQAPRGLIGGTNKRAPGTPARFSGSLLGGKAALTLSGVQPEDEAEYYCALWYSNLWVFGGGTKLTVLGQPKAAPSVTLFPPSSEELQANKATLVCLISDFYPGAVTVAWKADSSPVKAGVETTTPSKQSNNKYAASSYLSLTPEQWKSHRSYSCQVTHEGSTVEKTVAPTECS
notes: IgG4 PAA; PSMA arm chains first, then CD3 arm (F405L, R409K); also called PSMB127 x CD3B219; PS2B27
B2: PS3B19 (bispecific antibody, human IgG4 S228P, kappa, lambda, F234A L235A)
heavy 1: not shown
light 1: not shown
heavy 2: B1 heavy 2
light 2: B1 light 2
notes: IgG4 PAA; PSMA arm chains first, then CD3 arm (F405L, R409K); also called PSMB119 x CD3B219
B3: PS3B22 (bispecific antibody, human IgG4 S228P, kappa, lambda, F234A L235A)
heavy 1: not shown
light 1: DIQMTQSPSSLSASVGDRVTITCRASQSIDRWLNWYQQKPGKAPKLLIYAASSLQSGVPSRFSGSGSGTDFTLTISSLQPEDFATYYCQQSPRYPLTFGQGTKVEIKRTVAAPSVFIFPPSDEQLKSGTASVVCLLNNFYPREAKVQWKVDNALQSGNSQESVTEQDSKDSTYSLSSTLTLSKADYEKHKVYACEVTHQGLSSPVTKSFNRGEC
heavy 2: B1 heavy 2
light 2: B1 light 2
notes: IgG4 PAA; PSMA arm chains first, then CD3 arm (F405L, R409K); also called PSMB122 x CD3B219; PSB22
B4: PS3B28 (bispecific antibody, human IgG4 S228P, kappa, lambda, F234A L235A)
heavy 1: not shown
light 1: not shown
heavy 2: B1 heavy 2
light 2: B1 light 2
notes: IgG4 PAA; PSMA arm chains first, then CD3 arm (F405L, R409K); also called PSMB128 x CD3B219
B5: PS3B30 (bispecific antibody, human IgG4 S228P, kappa, lambda, F234A L235A)
heavy 1: not shown
light 1: not shown
heavy 2: B1 heavy 2
light 2: B1 light 2
notes: IgG4 PAA; PSMA arm chains first, then CD3 arm (F405L, R409K); also called PSMB130 x CD3B219
B6: PS3B24 (bispecific antibody, human IgG4 S228P, kappa, lambda, F234A L235A)
heavy 1: not shown
light 1: not shown
heavy 2: B1 heavy 2
light 2: B1 light 2
notes: IgG4 PAA; PSMA arm chains first, then CD3 arm (F405L, R409K); also called PSMB124 x CD3B219
B7: PS3B20 (bispecific antibody, human IgG4 S228P, kappa, lambda, F234A L235A)
heavy 1: not shown
light 1: not shown
heavy 2: B1 heavy 2
light 2: B1 light 2
notes: IgG4 PAA; PSMA arm chains first, then CD3 arm (F405L, R409K); also called PSMB120 x CD3B219
B8: PS3B23 (bispecific antibody, human IgG4 S228P, kappa, lambda, F234A L235A)
heavy 1: not shown
light 1: not shown
heavy 2: B1 heavy 2
light 2: B1 light 2
notes: IgG4 PAA; PSMA arm chains first, then CD3 arm (F405L, R409K); also called PSMB123 x CD3B219

Molecular target: T2, human PSMA (prostate specific membrane antigen), full length (human, UniProt Q04609 1-750)
T2 construct: On LNCaP or C4-2B cells (endogenous) or transduced HEK293F cells; also called FOLH1_HUMAN; hPSMA
Test: FACS, whole cell binding, LNCaP
Experimental: (§1) PSMA×CD3 bispecific antibodies were tested for binding to PSMA positive cell lines LNCAP, human PSMA-HEK, Chimpanzee-PSMA-HEK and Cynomolgous monkey PSMA-HEK. To assess the binding capabilities of the PSMA bispecific antibodies, the cell-binding assay was utilized (described previously). Briefly, PSMA expressing tumor cells are bound by bispecific antibodies at known concentrations and the bound antibody is detected by an anti-human kappa light chain PE conjugated detection reagent (Invitrogen). The Mean Fluorescents Intensity (MFI) is the measure of bound bispecific antibody. The MFI is converted to a relative EC₅₀. EC₅₀ is a commonly used dose-response curve, where the half maximal effective concentration or the EC₅₀ point is defined as the inflection point of the curve. EC₅₀ s were determined by measuring cell bound bispecific and known concentrations. […] The dose response curves were then diluted down to that of background or no bispecific binding. The inflection point of this curve reflects the EC₅₀ point. The calculated EC₅₀ is determined by taking the ug/ml amount of bispecific antibody at the EC₅₀ point and converting it to a molarity value based on the MW of the bispecific antibody. Bispecific antibodies were normalized for protein concentration and then incubated with the same number of cells expressing either human or cyno PSMA. The MFI at each concentration was collected by flow cytometry and plotted as a function of concentration. Data was transformed via log 10 and then plotted. Nonlinear regression of binding curves was done to determine EC₅₀ s. These relative values were used for ranking PSMA binding to target cells.

T2 sequence (Q04609 whole entry): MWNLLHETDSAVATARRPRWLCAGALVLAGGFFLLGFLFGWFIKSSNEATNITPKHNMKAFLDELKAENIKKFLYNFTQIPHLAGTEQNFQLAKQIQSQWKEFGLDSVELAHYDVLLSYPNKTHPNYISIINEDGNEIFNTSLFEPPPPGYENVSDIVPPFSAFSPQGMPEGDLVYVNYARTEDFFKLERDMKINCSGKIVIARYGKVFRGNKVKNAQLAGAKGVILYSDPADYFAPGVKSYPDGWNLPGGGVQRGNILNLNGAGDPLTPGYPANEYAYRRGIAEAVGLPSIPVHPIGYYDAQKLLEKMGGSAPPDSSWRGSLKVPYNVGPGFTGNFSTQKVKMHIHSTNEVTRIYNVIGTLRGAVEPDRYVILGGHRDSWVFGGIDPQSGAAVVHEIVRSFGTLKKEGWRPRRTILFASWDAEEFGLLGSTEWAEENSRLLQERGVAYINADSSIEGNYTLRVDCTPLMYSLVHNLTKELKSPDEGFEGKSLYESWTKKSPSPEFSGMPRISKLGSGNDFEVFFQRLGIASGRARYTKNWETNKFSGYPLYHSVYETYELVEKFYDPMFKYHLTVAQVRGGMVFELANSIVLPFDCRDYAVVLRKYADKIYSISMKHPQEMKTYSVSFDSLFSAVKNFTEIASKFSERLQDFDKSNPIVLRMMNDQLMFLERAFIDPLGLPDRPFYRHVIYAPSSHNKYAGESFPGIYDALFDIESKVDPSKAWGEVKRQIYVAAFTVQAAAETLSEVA

B1 and B3 are within 1.5-fold of each other in EC50: 2.07 µg/mL for the first, 2.6 µg/mL for the second.

B4 and B5 are within 1.5-fold of each other in EC50: 1.16 µg/mL for the first, 1.2 µg/mL for the second.

With B7 the EC50 was 123 µg/mL.

B2: binds.
B6: binds.

Molecular target: T1, Cynomolgous monkey PSMA, full length
Test: FACS, whole cell binding, cyno PSMA HEK; calculated EC50
Experimental: as §1

B1 and B2 are within 1.5-fold of each other in EC50: 9.9 nM for the first, 12.4 nM for the second.

Going from B3 to B4, the EC50 falls from 8 nM to 4.8 nM (1.7-fold).

B8 and B5 are within 1.5-fold of each other in EC50: 26.4 nM for the first, 37.8 nM for the second.

Compared with B6, B7 is 9.1-fold lower in EC50: 128 nM for the first, 14.1 nM for the second.
